From patent US12252534 (Scripps Research, dated 2025)
Positions count from the first letter of the chain named. Names and notes keep the numbering of the source.

B1: huL5H2 (SEQ ID NOS: 40, 42), pAcF double mutant Fab, unconjugated (Fab, V domains shown)
VH: EVQLVESGGGLVQPGGSLKLSCAASGFTFNTYAMNWVRQASGKGLEWVARIRSKYNNYATYYADSVKDRFTISRDDSKNTLYLQMNSLKTEDTAVYYCVRHGNFGNSYVSWFAYWGQGTLVTVSS
VL: QAVVTQEPSLTVSPGGTVTLTCRSSTGAVTTSNYANWVQQKPDHLFRGLIGGTNKRAPGTPARFSGSLLGDKAALTISGAQPEDEAEYYCALWYSNLWVFGGGTKLTVLK
modifications: p-acetylphenylalanine (pAcF) in place of S205 (S205TAG); p-acetylphenylalanine (pAcF) in place of K141 (K141TAG)
notes: Expressed in E. coli with an orthogonal tRNA/synthetase; also called VL5 kappa 205TAG + H2 141TAG
B2: huL5H2_DI-1×DUPA (SEQ ID NOS: 39, 44) (Fab, V domains shown)
VH: B1 VH with K19R, S41P, K89R, T90A
VL: B1 VL
modifications: pAcF at position 141 conjugated by oxime to a DUPA-linker
notes: De-immunized Fab with a single DUPA on the heavy chain; also called L5H2-DI-1X-DUPA; L5H2_DI-1xDUPA
B3: huL5H2_DI-2×DUPA (SEQ ID NOS: 40, 44) (Fab, V domains shown)
VH: B1 VH with K19R, S41P, K89R, T90A
VL: B1 VL
modifications: pAcF at position 205 conjugated by oxime to p-TriA (DUPA-linker); pAcF at position 141 conjugated by oxime to p-TriA (DUPA-linker)
notes: De-immunized Fab with one DUPA on the heavy chain and one on the light chain; also called L5H2-DI-2X-DUPA; L5H2_DI-2xDUPA
B4: DI-huL5H2 (SEQ ID NOS: 40, 44), de-immunized pAcF mutant Fab, unconjugated (Fab, V domains shown)
VH: B1 VH with K19R, S41P, K89R, T90A
VL: B1 VL
modifications: p-acetylphenylalanine (pAcF) at light chain position 205 (205TAG); p-acetylphenylalanine (pAcF) at heavy chain position 141 (141TAG)
notes: The heavy chain carries the de-immunizing mutations K19R, S41P, K89R and T90A relative to huL5H2; also called huL5H2_DI
B5: UCHT-1 (SEQ ID NOS: 84, 85) anti-CD3 Fab (Fab, V domains shown)
VH: EVQLVESGGGLVQPGGSLRLSCAASGYSFTGYTMNWVRQAPGKGLEWVALINPYKGVSTYNQKFKDRFTISVDKSKNTAYLQMNSLRAEDTAVYYCARSGYYGDSDWYFDVWGQGTLVTVSS
VL: DIQMTQSPSSLSASVGDRVTITCRASQDIRNYLNWYQQKPGKAPKLLIYYTSRLESGVPSRFSGSGSGTDYTLTISSLQPEDFATYYCQQGNTLPWTFGQGTKVEIKR
notes: The unconjugated UCHT-1 that was tested may carry pAcF residues; also called clone UCHT-1

Legend:
[1] = molecular target: T1, human CD3 on human T cells (Jurkat) (human, UniProt P07766 23-207; P04234 22-171; P09693 23-182); experiment: flow cytometry titration on Jurkat cells
T1 construct: whole, on cells; also called huCD3+; cell surface CD3 on human (Jurkat) T cells
T1 sequence (P07766 23-207, chain 1 of 3): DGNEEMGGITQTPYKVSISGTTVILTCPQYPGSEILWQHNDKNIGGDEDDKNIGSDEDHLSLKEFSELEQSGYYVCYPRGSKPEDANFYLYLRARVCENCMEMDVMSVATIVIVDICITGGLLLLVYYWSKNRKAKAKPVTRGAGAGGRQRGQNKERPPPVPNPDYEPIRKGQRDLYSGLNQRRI
T1 sequence (P04234 22-171, chain 2 of 3): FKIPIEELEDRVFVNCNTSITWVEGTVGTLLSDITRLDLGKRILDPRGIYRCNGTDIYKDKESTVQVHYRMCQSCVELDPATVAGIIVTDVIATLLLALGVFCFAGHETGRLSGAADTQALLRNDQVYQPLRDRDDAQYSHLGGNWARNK
T1 sequence (P09693 23-182, chain 3 of 3): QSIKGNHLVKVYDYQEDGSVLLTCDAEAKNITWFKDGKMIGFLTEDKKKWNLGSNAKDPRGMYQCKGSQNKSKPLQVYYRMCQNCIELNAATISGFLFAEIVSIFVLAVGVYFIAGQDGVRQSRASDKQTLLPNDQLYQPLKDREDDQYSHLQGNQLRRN
Text: (§1) Flow cytometry was used to assess for potential differential binding to cell surface CD3 on human (Jurkat) and cynomolgus T cells as a result of the "de-immunization" process. […] After several washes, samples were acquired on a BD LSRII or BD Accuri C6 and analyzed using FlowJo software.

[2] = molecular target: T2, cynomolgus CD3 on cynomolgus T cells (HSC-F) (cynomolgus monkey, UniProt Q95LI5 22-198; Q95LI8 22-171; Q95LI7 23-181); experiment: flow cytometry titration on HSC-F cells
T2 construct: whole, on cells; also called cyCD3+; cell surface CD3 on cynomolgus (HSC-F) T cells
T2 sequence (Q95LI5 22-198, chain 1 of 3): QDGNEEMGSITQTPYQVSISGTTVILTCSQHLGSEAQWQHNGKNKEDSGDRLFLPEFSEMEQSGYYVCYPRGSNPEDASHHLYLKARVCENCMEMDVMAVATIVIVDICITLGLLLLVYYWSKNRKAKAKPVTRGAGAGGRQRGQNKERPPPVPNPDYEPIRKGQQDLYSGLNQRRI
T2 sequence (Q95LI8 22-171, chain 2 of 3): as the sequence (P04234 22-171, chain 2 of 3) above, with I5V, N15K, I20V, S32T, D33N, I34N, T64A, S74N, V83L, H141R counted along it
T2 sequence (Q95LI7 23-181, chain 3 of 3): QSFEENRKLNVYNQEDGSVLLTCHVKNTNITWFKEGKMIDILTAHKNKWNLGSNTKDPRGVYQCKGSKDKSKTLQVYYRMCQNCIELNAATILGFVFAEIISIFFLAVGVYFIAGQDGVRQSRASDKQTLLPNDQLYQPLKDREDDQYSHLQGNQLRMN
Text: as §1

[3] = molecular target: T3, recombinant cynomolgus monkey CD3 delta/epsilon complex (cy.CD3 d/e-Fc) (cynomolgus monkey, UniProt Q95LI8 22-105; Q95LI5 22-117); experiment: Octet (BLI), cy.CD3 d/e-Fc captured on Fc sensor, conjugate as analyte; unit inferred, M implied
T3 construct: also called cynoCD3; not shown: Fc portion
T3 sequence (Q95LI8 22-105, stated change not applied, chain 1 of 2): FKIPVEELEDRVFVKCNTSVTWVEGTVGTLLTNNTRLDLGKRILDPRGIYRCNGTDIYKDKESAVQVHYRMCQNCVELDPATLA
T3 sequence (Q95LI5 22-117, stated change not applied, chain 2 of 2): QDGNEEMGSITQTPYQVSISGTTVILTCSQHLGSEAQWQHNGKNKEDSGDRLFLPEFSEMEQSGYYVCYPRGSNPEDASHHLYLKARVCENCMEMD
Method: (§2) Analytes were serially diluted 1.2× from 6 μg/mL to 1 μg/mL in the 1×PBS. 100 mM glycine (pH 2.87) regeneration solution, and 1×PBS for baseline stabilization was also prepared. Biosensor, ligand and analytes pair is following: (1) CH-1-antibodies-recombinant human or cynomolgus monkey CD3 delta/epsilon complex, (2) Fc-recombinant human or cynomolgus monkey CD3 delta/epsilon complex-antibodies (3) CH-1-antibodies-recombinant human or cynomolgus monkey PSMA; and (4) Ni-NTA-recombinant human or cynomolgus monkey PSMA-antibodies. Prior to the binding measurements, the sensor tips were pre-hydrated in 1×PBS for 30 min, followed by 1 cycles of pre-conditioning with 60-sec dips in glycine (pH 2.87). The sensor tips were then transferred to the ligand-containing wells for a 180-sec loading step. After a 120-sec baseline dip in 1×PBS, the binding kinetics were measured by dipping the ligand-coated sensors into the wells containing corresponding analyte at varying concentrations. The binding interactions were monitored over a 180-sec association period and followed by a 7.5 to 15-min dissociation period in new wells containing fresh 1×PBS.

[4] = molecular target: T4, recombinant human CD3 delta/epsilon complex (hu.CD3 d/e-Fc) (human, UniProt P04234 22-105; P07766 23-126); experiment: Octet (BLI), hu.CD3de-Fc captured on Fc sensor, conjugate as analyte; unit inferred, M implied
T4 construct: not shown: Fc portion
T4 sequence (P04234 22-105, stated change not applied, chain 1 of 2): as the sequence (Q95LI8 22-105, stated change not applied, chain 1 of 2) above, with V5I, K15N, V20I, T32S, N33D, N34I, A64T, N74S, L83V counted along it
T4 sequence (P07766 23-126, stated change not applied, chain 2 of 2): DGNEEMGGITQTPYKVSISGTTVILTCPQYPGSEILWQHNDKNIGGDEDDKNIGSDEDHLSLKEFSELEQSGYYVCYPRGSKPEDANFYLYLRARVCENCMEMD
Method: as §2

[5] = molecular target: T4, recombinant human CD3 delta/epsilon …; experiment: Octet (BLI), conjugate captured on CH1 sensor, hu.CD3 d/e-Fc as analyte; unit inferred, M implied
Method: as §2

[6] = molecular target: T3, recombinant cynomolgus monkey CD3 …; experiment: Octet (BLI), conjugate captured on CH1 sensor, cy.CD3 d/e-Fc as analyte; unit inferred, M implied
Method: as §2

[7] = molecular target: T1, human CD3 on human T cells (Jurkat); experiment: flow cytometry on Jurkat (huCD3+) cells, detected with PE-conjugated anti-human kappa secondary antibody; control is the secondary antibody alone
Text: (§3) Flow cytometry was used to test binding of conjugates to cell surface CD3 on human (Jurkat) and cynomolgus (HSC-F) T cells or PSMA on C4-2 cells.

[8] = molecular target: T2, cynomolgus CD3 on cynomolgus T cells …; experiment: flow cytometry on HSC-F (cyCD3+) cells, detected with PE-conjugated anti-human kappa secondary antibody; control is the secondary antibody alone
Text: as §3

Binder | IC50 [1] [nM] | IC50 [2] [nM] | Kd [4] [nM] | Kd [5] [nM] | other results
B1 | 5.9 | 3.8 |  |  | 
B2 |  |  | 21.2 | 4.83 | Kd [3]: 11.3 nM; Kd [6]: 3.29 nM
B3 |  |  | 11 | 5.13 | 
B4 | 4.6 | 3.4 |  |  | 
B5 |  |  |  |  | binding result [7]: binds; binding result [8]: no binding
